Data as given in US20210253678A1 (CUREAB, published 2021).

Tests used:
[1] = target: T1, peptide AA 36-55 of GP73 (rGP73), SSRSVDLQTRIMELEGRVRR (human, biotinylated in the ELISAs (position not given)); test: SPR (Biacore), fit for 1:1 binding, mean of measurements 1 + 2, GP73 peptide
T1 construct: also called GP73 peptide; peptide rGP73 (GP73 AA 36 to 55)
T1 peptide: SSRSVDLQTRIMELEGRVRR

[2] = target: T2, sGP73-10×His, encompassing GP73 AA56 to 401 (human, UniProt Q8NBJ4 56-401); test: ELISA on coated sGP73-His, anti mouse HRP secondary
T2 construct: also called sGP73-His; sGP73-HIS
T2 sequence: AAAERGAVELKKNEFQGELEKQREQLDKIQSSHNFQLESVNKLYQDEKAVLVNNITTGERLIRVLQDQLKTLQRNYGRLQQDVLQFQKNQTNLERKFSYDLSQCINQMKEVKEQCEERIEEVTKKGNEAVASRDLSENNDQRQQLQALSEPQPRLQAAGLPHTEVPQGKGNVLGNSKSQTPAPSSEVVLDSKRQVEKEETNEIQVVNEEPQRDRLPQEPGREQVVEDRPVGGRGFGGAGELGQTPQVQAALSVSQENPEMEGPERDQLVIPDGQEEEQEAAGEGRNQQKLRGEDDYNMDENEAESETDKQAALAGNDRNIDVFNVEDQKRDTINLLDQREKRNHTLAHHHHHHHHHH
Description: (§1) ELISA was carried out in 96 well plates coated overnight with sGP73 or GP73 AVRR and blocked with 2% gelatine. Antibodies 8A10, G2-2opti (IgG2a) or isotype control antibody were applied, incubated for 1.5 hours and washed away. A secondary Horse radish peroxidase labeled anti mouse antibody was added for 1 hour and after extensive washing a chromogenic substrate (TMB Amersham) was applied to detect peroxidase.

[3] = target: T3, GP73-10×His AVRR, encompassing GP73 AA36 to 401 with a R52A mutation (human, UniProt Q8NBJ4 36-401); test: ELISA on coated GP73-His AVRR, anti mouse HRP secondary
T3 construct: also called GP73 AVRR; GP73-His AVRR
T3 sequence: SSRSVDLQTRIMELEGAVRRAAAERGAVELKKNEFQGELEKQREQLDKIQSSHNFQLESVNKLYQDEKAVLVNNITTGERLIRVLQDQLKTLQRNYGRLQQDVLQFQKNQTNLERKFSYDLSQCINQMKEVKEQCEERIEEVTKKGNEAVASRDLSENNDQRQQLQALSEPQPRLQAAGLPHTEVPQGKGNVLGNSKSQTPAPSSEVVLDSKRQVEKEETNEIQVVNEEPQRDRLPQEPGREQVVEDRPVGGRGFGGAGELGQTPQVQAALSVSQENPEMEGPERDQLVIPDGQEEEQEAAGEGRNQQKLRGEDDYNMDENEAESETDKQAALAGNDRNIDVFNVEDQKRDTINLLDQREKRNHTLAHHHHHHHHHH
Description: as §1

[4] = target: T1, peptide AA 36-55 of GP73 (rGP73), …; test: peptide ELISA on coated biotinylated rGP73 AA36-55, anti mouse HRP secondary
Description: ELISA was carried out in 96 well plates coated overnight with the biotinylated peptide gp73 AA 36-55 or an unrelated peptide and blocked with 2% gelatine. Antibodies 8A10, G2-2opti (IgG2a) or isotype control antibody (IgG2a) were applied, incubated for 1.5 hours and then washed away. A secondary horse radish peroxidase labeled anti mouse antibody was added for 1 hour and after extensive washing a chromogenic substrate (TMB Amersham) was applied to detect peroxidase.

[5] = target: T4, human GP73 (GOLM1, GOLPH2) in Alexander (PLC/PRF/5) cells (human, UniProt Q8NBJ4 1-401); test: immunofluorescence on fixed, saponin treated Alexander cells
T4 construct: Endogenous protein of the cell line; cells were fixed with paraformaldehyde and treated with saponin
T4 sequence: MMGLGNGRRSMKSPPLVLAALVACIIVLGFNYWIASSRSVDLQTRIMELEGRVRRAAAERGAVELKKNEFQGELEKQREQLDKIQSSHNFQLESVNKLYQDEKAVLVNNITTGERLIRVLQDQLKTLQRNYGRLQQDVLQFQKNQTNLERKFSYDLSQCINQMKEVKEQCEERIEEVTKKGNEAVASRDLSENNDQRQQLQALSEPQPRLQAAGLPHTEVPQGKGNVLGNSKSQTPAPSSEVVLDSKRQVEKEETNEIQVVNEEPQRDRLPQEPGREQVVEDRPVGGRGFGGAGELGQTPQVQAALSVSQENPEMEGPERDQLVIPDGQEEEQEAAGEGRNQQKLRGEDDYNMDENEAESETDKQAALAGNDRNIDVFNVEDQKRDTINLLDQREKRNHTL
Description: Alexander cells were grown on 4 chamber slides, fixed with 4% paraformaldehyde, treated with 0.2% Saponin and blocked with 10% bovine serum albumin. Cells were incubated for one hour with goat anti-GP73 (santa cruz sc-48010) and mG2-2 and washed. Bound antibodies were stained with anti goat Alexa Fluor 488 (abeam ab150129) and anti mouse Alexa Fluor 647 (abeam ab150115). Nuclei were treated with DAPI.

[6] = target: T5, GP73 (endogenous human GP73 on HEK 293, HuH7, JHH4 and DU145 cells and in human tissue sections); test: immunohistochemistry, paraffin section of hepatitis liver, anti-mouse secondary
T5 construct: One entry for all cell lines and tissues; also called GOLM1; GOLPH2
T5 antigen: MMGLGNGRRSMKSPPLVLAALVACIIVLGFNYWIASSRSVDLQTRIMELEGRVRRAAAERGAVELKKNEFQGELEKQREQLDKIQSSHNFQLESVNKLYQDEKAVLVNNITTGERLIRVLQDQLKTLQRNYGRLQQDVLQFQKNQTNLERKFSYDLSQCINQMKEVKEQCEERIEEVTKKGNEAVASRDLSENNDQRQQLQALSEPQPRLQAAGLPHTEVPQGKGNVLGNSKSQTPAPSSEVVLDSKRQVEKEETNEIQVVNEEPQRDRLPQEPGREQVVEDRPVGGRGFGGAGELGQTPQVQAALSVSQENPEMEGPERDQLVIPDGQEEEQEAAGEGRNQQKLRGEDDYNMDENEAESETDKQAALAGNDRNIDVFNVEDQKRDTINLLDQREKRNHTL
Source text: FIG. 5 Immunohistochemical staining of tissues with the anti-rGOLPH antibody G2-2 and controls. Paraffin embedded tissues of A normal liver B hepatitis liver C and D hepatocellular carcinoma (HCC) were stained with murine G2-2 (mG2-2) (A,B,C) or anti-GP73 antibody M06A (Sigma) followed by secondary staining with an anti-mouse antibody and examined under a microscope by 40× magnification as described in Example 3.
Paraffin embedded tissues of normal liver, hepatitis liver, hepatocellular carcinoma (HCC), endometrium carcinoma, ovarian carcinoma, melanoma, small cell lung cancer and gastric cancer were stained with murine G2-2 (mG2-2) or mouse anti GOLPH (M06A Sigma) followed by secondary staining with an anti-mouse IgG. Nuclei were stained with hematoxylin (blue), cytoplasma was stained with hemalum-eosin.

[7] = target: T5, GP73 (endogenous human GP73 on HEK 293, …); test: flow cytometry of antibody left on the surface of HuH7 cells (panel title) after loading at 4°C; detection with APC anti-human Fab
Description: Cells were incubated with 10 ug/ml of G2-2 or G2-1 for one hour at 4° C. in PBS. Unbound G2-2 was washed away and cells were transferred to tissue culture medium with 10% FCS and then either warmed to 37° C. to allow internalization or maintained at 4° C. The internalization process was stopped after 15, 30, 60 or 120 minutes by transferring the cells into ice-cold buffer with 0.1% […]. Cells were stained with APC-conjugated goat anti-human Fab (Jackson Immuno) and analyzed by FACS. The residual levels of cell surface G2-2 was calculated based on the mean fluorescence intensity (MFI).

[8] = target: T5, GP73 (endogenous human GP73 on HEK 293, …); test: flow cytometry, surface staining of HEK 293 cells, axis anti-mouse APC
Description: Detection of surface staining of cells is depicted as continuous line, only secondary antibody control detection is depicted as dashed line as described in Example 4.
Different human and murine cell lines e.g. HuH7, JHH4, HEK293, HEK293-GP73-myc and Ramos were tested by Flow cytometry analysis for expression of GP73 on their cell surface and binding of G2-2, G2-1 and G2-4. […]

B1: G2-1 (human IgG1 heavy chain and human Igk light chain constant regions) (antibody, V domains shown)
VH: EVQLLESGGGVVQPGRSLRLSCAASGFTFSSYAMSWVRQAPGKGLEWVSVISYDGSNKAYADSVKGRFTISRDNSKNTLYLQMNSLRAEDTAVYYCARGRSYYDSSGYLFDYWGQGTLVTVSS
VL: DIQMTQPHSVSESVGKTVIITCTGGGGSIDTNYVQWYQQRPGSAPVTLIYEDDQRPFGVPDRFSAAIDTSSSSASLTISGLTAEDEATYYCQSSHSTAVVFGGGTKVEIKR
notes: scFv clone from a human scFv library, cloned as human IgG1/kappa; also called G2-1-HRP (horse radish peroxidase labeled)
Kd [1]: 3.02 nM | koff [1]: 0.00198 s⁻¹ | kon [1]: 635000 M⁻¹ s⁻¹

B2: G2-2opti (IgG2a) (antibody, V domains shown)
VH: QVQLVQSGGGVVQPGRSLRLSCAASGFTFSSYGMHWVRQAPGKGLEWVAVISYDGSNKYYADSVKGRFTISRDNSKNTLYLQMNSLRAEDTAVYYCAREGSAGMDVWGQGTTVTVSS
VL: QAVLTQPSSLSASPGASASLTCTLRSDISVGFHRIYWYQQKPGSPPQYLLRYKSDSDKQQGSGVPSRFSGSKDASANAGILLISGLQSDDEADYYCVIWHTSGVVFGGGTKLTVL
notes: 'a chimeric human/murine version with a murine CH2 and CH2'
binding result [2]: no binding (tested: 5.0 ug/ml) | binding result [3]: binds | binding result [4]: binds

B3: mG2-2 (G2-2 variable regions with murine IgG2a heavy chain and human Igk light chain constant regions) (antibody)
heavy: EVQLLQSGGGVVQPGRSLRLSCAASGFTFSSYGMSWVRQAPGKGLEWVAVISYDGSNKYYADSVKGRFTISRDNSKNTLYLQMNSLRAEDTAVYYCAREGSAGMDVWGQGTTVTVSSASTTAPSVYPLAPVCGDTTGSSVTLGCLVKGYFPEPVTLTWNSGSLSSGVHTFPAVLQSDLYTLSSSVTVTSSTWPSQSITCNVAHPASSTKVDKKIEPRGPTIKPCPPCKCPAPNLLGGPSVFIFPPKIKDVLMISLSPIVTCVVVDVSEDDPDVQISWFVNNVEVHTAQTQTHREDYNSTLRVVSALPIQHQDWMSGKEFKCKVNNKDLPAPIERTISKPKGSVRAPQVYVLPPPEEEMTKKQVTLTCMVTDFMPEDIYVEWTNNGKTELNYKNTEPVLDSDGSYFMYSKLRVEKKNWVERNSYSCSVVHEGLHNHHTTKSFSRTPGK
light: DIQMTQPSSLSASPGASASLTCTLRSDISVGFHRIYWYQQKPGSPPQYLLRYKSDSDKQQGSGVPSRFSGSKDASANAGILLISGLQSDDEADYYCVIWHTSGVVFGGGTKVEIKRTVAAPSVFIFPPSDEQLKSGTASVVCLLNNFYPREAKVQWKVDNALQSGNSQESVTEQDSKDSTYSLSSTLTLSKADYEKHKVYACEVTHQGLSSPVTKSFNRGEC
notes: also called murine G2-2
binding result [5]: binds | binding result [6]: binds

B4: G2-2 (human IgG1 heavy chain and human Igk light chain constant regions) (antibody)
heavy: not shown
light: DIQMTQPSSLSASPGASASLTCTLRSDISVGFHRIYWYQQKPGSPPQYLLRYKSDSDKQQGSGVPSRFSGSKDASANAGILLISGLQSDDEADYYCVIWHTSGVVFGGGTKVEIKRTVAAPSVFIFPPSDEQLKSGTASVVCLLNNFYPREAKVQWKVDNALQSGNSQESVTEQDSKDSTYSLSSTLTLSKADYEKHKVYACEVTHQGLSSPVTKSFNRGEC
notes: scFv clone from a human scFv library, cloned as human IgG1/kappa; also called G2-2-HRP (horse radish peroxidase labeled); anti-rGOLPH antibody G2-2
Kd [1]: 4.29 nM | koff [1]: 0.00111 s⁻¹ | kon [1]: 260000 M⁻¹ s⁻¹ | binding result [7]: binds

B5: G2-4 (antibody, V domains shown)
VH: QVQLEESGGGLVQPGGSLRLSCATSGFTFTDYYMSWVRQPPGKALEWLGFIRNKAKGYTTEYSASVKGRFTISRDNSQSILYLQMNTLRAEDSATYYCARDPSTNYWYFDVWGAGTTVTVSS
VL: DIVLTQSPSSLAVSAGEKVTMTCKSSQSLLNSRTRKNYLAWYQQKPGQSPKLLIYWASTRESGVPDRFTGSGSGTDFTLTISSVQAEDLAVYYCKQSYNLYTFGGGTKLEIKR
binding result [8]: binds
